# Values quoted from earlier work as cited in paper PMC12198371 (Nature Communications, 2025).
# B1: BBI G.m.: Bowman–Birk inhibitor (BBI) from soybean Glycine max (71 amino acids) (protein, UniProt P01055 40-110, looked up)
# Bowman-Birk type proteinase …: DDESSKPCCDQCACTKSNPPQCRCSDMRLNSCHSACKSCICALSYPAQCFCVDITDFCYEPCKPSEDDKEN
# Molecular target: α-chymotrypsin
# Details: natural inhibitor, Fig. 9d
molecule,measurement,value
B1,Ki,6 nM
